Results published in article PMC6200926 (The Journal of Biological Chemistry, 2018).

Columns and labels:
[1] = target: T1, A/Thailand/1(KAN-1)/2004 HA globular head (Asp-55–Glu-271) (Influenza A virus …, strain); test: cell-based or functional assay
[2] = target: A/Turkey/65596/2006 HA globular head (Asp-55–Glu-271) (Influenza A virus A/Turkey/65596/2006 …, strain); test: cell-based or functional assay
[3] = target: T2, A/Vietnam/1203/2004 HA globular head (Asp-55–Glu-271) (Influenza A virus A/Vietnam/1203/2004 …, UniProt Q5EP31, strain); test: cell-based or functional assay
[4] = target: T1, A/Thailand/1(KAN-1)/2004 HA globular …; test: SPR; conditions: both partners purified
[5] = target: T2, A/Vietnam/1203/2004 HA globular head …; test: SPR; conditions: both partners purified
[6] = target: T3, A/Anhui/1/2005 HA globular head (Asp-55–Glu-271) (Influenza A virus A/Anhui/1/2005 (H5N1), UniProt Q1WDM0, strain); test: cell-based or functional assay
[7] = target: T4, A/Beijing/01/2003 HA globular head (Asp-55–Glu-271) (Influenza A virus A/Beijing/01/2003 …, UniProt A5YTS6, strain); test: cell-based or functional assay
[8] = target: T3, A/Anhui/1/2005 HA globular head …; test: SPR; conditions: both partners purified
[9] = target: T4, A/Beijing/01/2003 HA globular head …; test: SPR; conditions: both partners purified

B1: FLD21.140 (antibody, V domains shown)
VH: QVQLQESGPGLVKPSQTLSLTCTVSGGSISSGTYYWSWIRHHPGKGLEWIGYIYHSGSAYYNPSLESRVTMSVDTSKNQFSLKLSSVTAADTAIYYCARAENLLSPYLAEGFDPWGQGTLVTVSS
VL: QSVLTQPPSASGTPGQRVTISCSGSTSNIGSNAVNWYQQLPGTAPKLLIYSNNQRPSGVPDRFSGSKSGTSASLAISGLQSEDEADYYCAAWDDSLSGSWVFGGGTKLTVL
- neutralisation IC50, pseudovirus with the whole HA of this strain [1]: 8 ng/mL
- neutralisation IC50, pseudovirus with the whole HA of this strain [2]: 1 ng/mL
- neutralisation IC50, pseudovirus with the whole HA of this strain [3]: 1 ng/mL

B2: FLD21.140 Fab (Fab, V domains shown)
VH: QVQLQESGPGLVKPSQTLSLTCTVSGGSISSGTYYWSWIRHHPGKGLEWIGYIYHSGSAYYNPSLESRVTMSVDTSKNQFSLKLSSVTAADTAIYYCARAENLLSPYLAEGFDPWGQGTLVTVSS
VL: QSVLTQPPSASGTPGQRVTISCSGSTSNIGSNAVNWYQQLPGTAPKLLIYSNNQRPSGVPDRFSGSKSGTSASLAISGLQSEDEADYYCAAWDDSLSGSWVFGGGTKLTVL
- Kd [4]: 1 nM
- Kd [5]: 0.702 nM

B3: AVFluIgG03 (antibody, V domains shown)
VH: EVQLLESGGGLVQPGGSLRVSCTNSGFTFSNYAMSWVRQAPGKGLEWVSAISGNGGSGTYYADSVKGRFTISRDNSKNTMYLQMNSLRAEDTAVYYCVRDDSYDGGGHYGLHNWFDSWGQGTLVTVSS
VL: SVLTQPPSVSGAPGQRVTISCTGSSSNIGAGYDVHWYQQLPGTAPKLLIYGNSNRPSGVPDRFSGSKSGTSASLAITGLQAEDEADYYCQSYDSSVVVFGGGTKLEIK
- neutralisation IC50, pseudovirus with the whole HA of this strain [6]: 2 ng/mL
- neutralisation IC50, pseudovirus with the whole HA of this strain [7]: 3 ng/mL

B4: AVFluIgG03 Fab (Fab, V domains shown)
VH: EVQLLESGGGLVQPGGSLRVSCTNSGFTFSNYAMSWVRQAPGKGLEWVSAISGNGGSGTYYADSVKGRFTISRDNSKNTMYLQMNSLRAEDTAVYYCVRDDSYDGGGHYGLHNWFDSWGQGTLVTVSS
VL: SVLTQPPSVSGAPGQRVTISCTGSSSNIGAGYDVHWYQQLPGTAPKLLIYGNSNRPSGVPDRFSGSKSGTSASLAITGLQAEDEADYYCQSYDSSVVVFGGGTKLEIK
notes: source: cut from the purified IgG with Lys-C
- Kd [8]: 12.6 nM
- Kd [9]: 25 nM
